According to paper PMC6522505:

Molecular target: secCl (CG7589), Cys-loop ligand-gated ion channel subunit (Drosophila melanogaster)

shift in reversal potential in low chloride buffer, Xenopus oocytes co-expressing secCl and CG6927: 53 mV
Substance: CG6927, Cys-loop ligand-gated ion channel subunit (natural protein)
